From patent publication US20160033502

Biological target: T1, activated insulin receptor (pYpY1162/1163-IR) of mouse MS-1 endothelial cells, P15208
T1 chain: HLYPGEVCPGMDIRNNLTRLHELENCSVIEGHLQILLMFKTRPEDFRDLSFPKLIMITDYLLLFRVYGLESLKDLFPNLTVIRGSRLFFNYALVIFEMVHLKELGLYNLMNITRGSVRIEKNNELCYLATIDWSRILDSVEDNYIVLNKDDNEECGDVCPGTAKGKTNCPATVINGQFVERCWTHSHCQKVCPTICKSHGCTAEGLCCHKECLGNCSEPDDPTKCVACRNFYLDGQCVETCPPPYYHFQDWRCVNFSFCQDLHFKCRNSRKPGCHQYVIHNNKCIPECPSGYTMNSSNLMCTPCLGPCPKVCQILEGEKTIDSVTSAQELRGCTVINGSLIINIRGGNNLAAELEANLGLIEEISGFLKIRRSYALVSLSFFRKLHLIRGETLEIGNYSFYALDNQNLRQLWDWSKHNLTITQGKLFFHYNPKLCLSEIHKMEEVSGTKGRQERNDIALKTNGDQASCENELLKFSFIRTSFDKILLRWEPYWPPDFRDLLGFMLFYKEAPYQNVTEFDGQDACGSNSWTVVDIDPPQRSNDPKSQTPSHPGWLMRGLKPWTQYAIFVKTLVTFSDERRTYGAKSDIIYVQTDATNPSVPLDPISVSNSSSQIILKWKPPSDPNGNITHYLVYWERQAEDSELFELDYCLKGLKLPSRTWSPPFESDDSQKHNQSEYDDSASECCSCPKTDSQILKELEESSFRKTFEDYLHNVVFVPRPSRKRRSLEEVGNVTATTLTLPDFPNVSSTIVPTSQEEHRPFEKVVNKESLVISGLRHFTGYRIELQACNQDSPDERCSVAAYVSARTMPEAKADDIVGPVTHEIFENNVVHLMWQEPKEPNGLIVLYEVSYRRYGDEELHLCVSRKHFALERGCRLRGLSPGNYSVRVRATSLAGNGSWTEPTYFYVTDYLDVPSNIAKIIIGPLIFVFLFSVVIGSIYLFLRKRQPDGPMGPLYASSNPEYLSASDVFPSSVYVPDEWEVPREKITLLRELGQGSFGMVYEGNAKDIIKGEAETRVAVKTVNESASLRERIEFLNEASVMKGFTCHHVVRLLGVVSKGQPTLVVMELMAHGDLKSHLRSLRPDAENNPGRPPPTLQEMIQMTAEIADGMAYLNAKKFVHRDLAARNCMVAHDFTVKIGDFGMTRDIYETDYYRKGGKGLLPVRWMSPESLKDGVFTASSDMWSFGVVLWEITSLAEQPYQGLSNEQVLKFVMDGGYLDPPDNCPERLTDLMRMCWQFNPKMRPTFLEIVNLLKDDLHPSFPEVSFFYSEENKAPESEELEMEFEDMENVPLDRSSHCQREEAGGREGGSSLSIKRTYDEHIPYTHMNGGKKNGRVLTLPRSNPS

B1: HA-tagged C215S mutant form of full-length PTP1B (protein)
chain: MEMEKEFEQIDKSGSWAAIYQDIRHEASDFPCRVAKLPKNKNRNRYRDVSPFDHSRIKLHQEDNDYINASLIKMEEAQRSYILTQGPLPNTCGHFWEMVWEQKSRGVVMLNRVMEKGSLKCAQYWPQKEEKEMIFEDTNLKLTLISEDIKSYYTVRQLELENLTTQETREILHFHYTTWPDFGVPESPASFLNFLFKVRESGSLSPEHGPVVVHSSAGIGRSGTFCLADTCLLLMDKRKDPSSVDIKKVLLEMRKFRMGLIQTADQLRFSYLAVIEGAKFIMGDSSVQDQWKELSHEDLEPPPEHIPPPPRPPKRILEPHNGKCREFFPNHQWVKEETQEDKDCPIKEEKGSPLNAAPYGIESMSQDTEVRSRVVGGSLRGAQAASPAKGEPSLPEKDEDHALSYWKPFLVNMCVATVLTAGAYLCYRFLFNSNT
IR pYpY1162/1163 phosphorylation (immunoblot, ratio of phosphorylated InRβ to total InRβ): such eNOS ablation-caused defect of insulin signaling was significantly restored by ectopic expression of PTP1B-C215S
